Data taken from paper PMC5819829, “Cell-free synthesis of functional antibody fragments to provide a structural basis for antibody–antigen interaction” (PLoS ONE, 2018).

B1: 059-152-Fv (Fv fragment of the fully human anti-EGFR antibody 059-152) (other)
VH: QVQLQESGPGLVKPSETLSLTCTVSGGSISSSSYYWGWIRQPPGKGLEWIGSIYYSGSTYYNPSLKSRVTISVDTSKNQFSLKLSSVTAADTAVYYCARLPMVTMSFDYWGQGTLVTVSS
VL: SYVLTQPPSVSVAPGKTARITCGGNNIGSKSVHWYQQKPGQAPVLVIYYDSDRPSGIPERFSGSNSGNTATLTISRVEAGDEADYYCQVWDSSSDHVVFGGGTKLTVL
notes: also in PDB 5XWD; VL also in PDB 5XWD; Fv: VH and VL synthesised together as two separate chains; source: cell-free synthesis (E. coli S30 extract, dialysis mode, 0.2 mg/ml DsbC), purified (HisTrap, TEV cleavage, SEC); not shown: N11-tag, N-terminal, cleaved
B2: Alexa-488 conjugated 059-152-Fv (other, human)
VH: B1 VH
VL: B1 VL
notes: also in PDB 5XWD; linker inserted just before the stop codon, followed by the amber codon that is read as AzF; Fv; m3 after copper-free click chemistry; also called Alexa-488 conjugated Fv; not shown: N11-tag, N-terminal, cleaved
B3: AzF-incorporated 059-152-Fv (other, human)
VH: B1 VH
VL: B1 VL
notes: also in PDB 5XWD; linker inserted just before the stop codon, followed by the amber codon that is read as AzF; Fv; AzF is the last residue of the VH chain, after the linker; also called AzF-incorporated Fv; not shown: N11-tag, N-terminal, cleaved
B4: Alexa-488 conjugated 059-152-Fab (Fab, V domains shown)
VH: B1 VH
VL: B1 VL
notes: also in PDB 5XWD; linker inserted just before the stop codon, followed by the amber codon that is read as AzF; m6 after copper-free click chemistry; also called Alexa-488 conjugated Fab; not shown: N11-tag, N-terminal, cleaved
B5: 059-152-Fab (Fab fragment of the fully human anti-EGFR antibody 059-152) (Fab, V domains shown)
VH: B1 VH
VL: B1 VL
notes: also in PDB 5XWD; its VL part is in PDB 5XWD; source: cell-free synthesis (E. coli S30 extract, dialysis mode, 0.8 mg/ml DsbC), purified (HisTrap, TEV cleavage, SEC); not shown: N11-tag, N-terminal, cleaved
B6: AzF-incorporated 059-152-Fab (Fab, V domains shown)
VH: B1 VH
VL: B1 VL
notes: also in PDB 5XWD; linker inserted just before the stop codon, followed by the amber codon that is read as AzF; AzF is the last residue of the VHCH1 chain, after the linker; also called AzF-incorporated Fab; not shown: N11-tag, N-terminal, cleaved

These binders were tested against T1, EGFR-ECD (extracellular domain of human epidermal growth factor receptor, 1-643) (Homo sapiens, UniProt P00533, N-linked oligosaccharides cleaved by endoglycosidase H) (assay: SPR; BIAcore 3000; EGFR-ECD immobilised on a CM5 chip by amine coupling; single-cycle kinetics with 50.0, 16.6, 5.55, 1.85 and 0.617 nM Fv or Fab; 30 ul/min, 60-s association, 120-s dissociation; 25 C; HBS-EP+ buffer; triplicate). Conditions: both partners purified.
T1 construct: human epidermal growth factor receptor, extracellular domain, residues 1-643 as printed; A TEV site between the ECD and the His-tag is implied by the cleavage; also called extracellular domain of human EGFR; human EGFR-ECD; source: HEK293S GnTI- cells, transient overexpression, secreted; purified (HisTrap, TEV cleavage of the His-tag, endoglycosidase H, HiTrap Q, SEC); not shown: His-tag, …
With B1 the Kd was 5.9 ± 0.1 nM, the koff was 0.0147 s⁻¹ and the kon was 2.49e+06 M⁻¹ s⁻¹.
B2 was tested, and the Kd was 6.1 ± 0.1 nM, the koff was 0.0154 s⁻¹ and the kon was 2.52e+06 M⁻¹ s⁻¹.
With B3 the Kd was 5.8 ± 0.2 nM, the koff was 0.0137 s⁻¹ and the kon was 2.36e+06 M⁻¹ s⁻¹.
B4 gave a Kd of 8.1 ± 0.2 nM, a koff of 0.0133 s⁻¹ and a kon of 1.67e+06 M⁻¹ s⁻¹.
With B5 the Kd was 7.7 ± 0.1 nM, the koff was 0.015 s⁻¹ and the kon was 1.94e+06 M⁻¹ s⁻¹.
For B6, the Kd was 7 ± 0.1 nM, the koff was 0.0125 s⁻¹ and the kon was 1.78e+06 M⁻¹ s⁻¹.
